Results reported in patent publication US9650648.

Tests used:
Test in all cases: cell_activity
[1] = tested on: TALEN 102315 (gamma globin promoter) (synthetic); settings: pair with 102320; K562, Cel-I
[2] = tested on: ZFN 44905 (BCL11A-XL) (synthetic); settings: pair with 44904; K562
[3] = tested on: TALEN 102314 (gamma globin promoter) (synthetic); settings: pair with 102318; K562, Cel-I; 2.14X gamma mRNA in CD34+
[4] = tested on: TALEN 102320 (gamma globin promoter) (synthetic); settings: pair with 102315; K562, Cel-I
[5] = tested on: ZFN 44489 (BCL11A exon 2) (synthetic); settings: pair with 39172; K562
[6] = tested on: ZFN 45081 (BCL11A exon 2) (synthetic); settings: pair with 39172; K562
[7] = tested on: ZFN 44490 (BCL11A exon 2) (synthetic); settings: pair with 39172; K562
[8] = tested on: ZFN 39145 (BCL11A exon 2) (synthetic); settings: pair with 39172; CD34+ cells; 3.65X gamma mRNA
[9] = tested on: ZFN 44493 (BCL11A exon 2) (synthetic); settings: pair with 39172; K562
[10] = tested on: ZFN 34642 (BCL11A exon 4) (synthetic); settings: pair with 34678; CD34+ cells; 3.52X gamma mRNA
[11] = tested on: ZFN 44904 (BCL11A-XL) (synthetic); settings: pair with 44905; K562
[12] = tested on: ZFN 36085 (KLF1 exon 2) (synthetic); settings: pair with 36071; CD34+ cells; 3.17X gamma mRNA
[13] = tested on: TALEN 102318 (gamma globin promoter) (synthetic); settings: pair with 102314; K562, Cel-I; 2.14X gamma mRNA in CD34+
[14] = tested on: TALEN 102316 (gamma globin promoter) (synthetic); settings: pair with 102321; K562, Cel-I
[15] = tested on: ZFN 43545 (beta-globin IVS1.1) (synthetic); settings: pair with 43544; CD34+ cells
[16] = tested on: ZFN 43544 (beta-globin IVS1.1) (synthetic); settings: pair with 43545; CD34+ cells
[17] = tested on: TALEN 102321 (gamma globin promoter) (synthetic); settings: pair with 102316; K562, Cel-I
[18] = tested on: ZFN 44889 (BCL11A-XL) (synthetic); settings: pair with 44888; K562
[19] = tested on: ZFN 44911 (BCL11A-XL) (synthetic); settings: pair with 44910; K562
[20] = tested on: TALEN 101291 (BCL11A exon 2) (synthetic); settings: pair with 101292; K562, Cel-I
[21] = tested on: TALEN 102566 (gamma globin -110) (synthetic); settings: pair with 102568; CD34+ cells, MiSeq; 6.25X gamma mRNA
[22] = tested on: ZFN 31160 (gamma globin -175) (synthetic); settings: pair with 34365; K562; 45.22% in CD34+; 1.63X gamma mRNA
[23] = tested on: ZFN 34363 (gamma globin -175) (synthetic); settings: pair with 34360; K562, Cel-I
[24] = tested on: ZFN 36021 (KLF1 exon 1) (synthetic); settings: pair with 36004; CD34+ cells; 2.2X gamma mRNA
[25] = tested on: ZFN 44888 (BCL11A-XL) (synthetic); settings: pair with 44889; K562
[26] = tested on: ZFN 34539 (gamma globin -110) (synthetic); settings: pair with 34574; CD34+ cells; 5.38X gamma mRNA
[27] = tested on: ZFN 43852 (gamma globin -110) (synthetic); settings: pair with 43865; CD34+ cells
[28] = tested on: TALEN 101292 (BCL11A exon 2) (synthetic); settings: pair with 101291; K562, Cel-I
[29] = tested on: ZFN 34360 (gamma globin -175) (synthetic); settings: pair with 34363; K562, Cel-I
[30] = tested on: ZFN 44910 (BCL11A-XL) (synthetic); settings: pair with 44911; K562
[31] = tested on: ZFN 34574 (gamma globin -110) (synthetic); settings: pair with 34539; CD34+ cells; 5.38X gamma mRNA
[32] = tested on: ZFN 43865 (gamma globin -110) (synthetic); settings: pair with 43852; CD34+ cells
[33] = tested on: TALEN 101304 (BCL11A exon 4) (synthetic); settings: pair with 101301; CD34+ cells; 2.31X gamma mRNA
[34] = tested on: ZFN 43490 (BCL11A exon 2) (synthetic); settings: pair with 39145; K562
[35] = tested on: ZFN 45147 (BCL11A exon 2) (synthetic); settings: pair with 39145; K562; printed as 41547 in Table 1B, 45147 in Table 1A
[36] = tested on: ZFN 39172 (BCL11A exon 2) (synthetic); settings: pair with 39145; CD34+ cells; 3.65X gamma mRNA
[37] = tested on: ZFN 45148 (BCL11A exon 2) (synthetic); settings: pair with 39145; K562; printed as 41548 in Table 1B, 45148 in Table 1A
[38] = tested on: ZFN 44642 (BCL11A exon 2) (synthetic); settings: pair with 39145; K562
[39] = tested on: ZFN 44944 (BCL11A-XL) (synthetic); settings: pair with 44945; K562
[40] = tested on: ZFN 44946 (BCL11A-XL) (synthetic); settings: pair with 44947; K562
[41] = tested on: ZFN 34365 (gamma globin -175) (synthetic); settings: pair with 31160; K562; 45.22% in CD34+; 1.63X gamma mRNA
[42] = tested on: ZFN 34400 (gamma globin -175) (synthetic); settings: pair with 34398; K562, Cel-I
[43] = tested on: TALEN 102568 (gamma globin -110) (synthetic); settings: pair with 102566; CD34+ cells, MiSeq; 6.25X gamma mRNA
[44] = tested on: ZFN 44945 (BCL11A-XL) (synthetic); settings: pair with 44944; K562
[45] = tested on: ZFN 34398 (gamma globin -175) (synthetic); settings: pair with 34400; K562, Cel-I
[46] = tested on: ZFN 36004 (KLF1 exon 1) (synthetic); settings: pair with 36021; CD34+ cells; 2.2X gamma mRNA
[47] = tested on: ZFN 44947 (BCL11A-XL) (synthetic); settings: pair with 44946; K562
[48] = tested on: ZFN 34678 (BCL11A exon 4) (synthetic); settings: pair with 34642; CD34+ cells; 3.52X gamma mRNA
[49] = tested on: TALEN 101301 (BCL11A exon 4) (synthetic); settings: pair with 101304; CD34+ cells; 2.31X gamma mRNA
[50] = tested on: ZFN 36071 (KLF1 exon 2) (synthetic); settings: pair with 36085; CD34+ cells; 3.17X gamma mRNA

GTATCCTCTTGGGGGCCC (double strand) [HBG TALEN 102315 site]
activity [1]: 47.9 % NHEJ

GAGAAGCCACACGGGCGAAAGGCCTTAT (double strand) [BCL11A-XL 44905 site]
activity [2]: 25.4 % indels

GTATCCTCTTGGGGGCC (double strand) [HBG TALEN 102314 site]
activity [3]: 41.6 % NHEJ

ATATTTGCATTGAGATAGT (double strand) [HBG TALEN 102320 site]
activity [4]: 47.9 % NHEJ

CCCAACGGGCCGTGGTCTGGTTCATCAT (double strand) [BCL11A exon 2 site, SEQ 170]
activity [5]: 24.3 % indels | activity [6]: 27.8 % indels | activity [7]: 29.4 % indels | activity [8]: 69.8 % indels | activity [9]: 25.7 % indels

ATCCCATGGAGAGGTGGCTGGGAAGGAC (double strand) [BCL11A exon 4 34642 site]
activity [10]: 82.2 % indels

TGGACAGTGAGATTGCTACAGTTCTTGA (double strand) [BCL11A-XL 44904 site]
activity [11]: 25.4 % indels

CTTCTCGGGCCCGGAGCCCGGTGGCGCG (double strand) [KLF1 exon 2 36085 site]
activity [12]: 22.6 % indels

ATATTTGCATTGAGATAGTGT (double strand) [HBG TALEN 102318 site]
activity [13]: 41.6 % NHEJ

GTATCCTCTTGGGGGCCCC (double strand) [HBG TALEN 102316 site]
activity [14]: 46.6 % NHEJ

ATCAAGGTTACAAGACAGGTTTAAGGAG (double strand) [HBB IVS1.1 43545 site]
activity [15]: 52.6 % NHEJ

AATCTGCCCAGGGCCTCACCACCAACTT (double strand) [HBB IVS1.1 43544 site]
activity [16]: 52.6 % NHEJ

ATATTTGCATTGAGATAG (double strand) [HBG TALEN 102321 site]
activity [17]: 46.6 % NHEJ

CTCACTGTCCACAGGAGAAGCCACACGG (double strand) [BCL11A-XL 44889 site]
activity [18]: 35.1 % indels

GCCACACGGGCGAAAGGCCTTATAAATG (double strand) [BCL11A-XL 44911 site]
activity [19]: 36.4 % indels

CTGTGGGCAGTGCCAGATGA (double strand) [BCL11A exon 2 TALEN 101291 site]
activity [20]: 0.8 % indels

GTTGGCCAGCCTTGCCTTGAC (double strand) [HBG -110 TALEN 102566 site]
activity [21]: 51.4 % NHEJ

TATTTGCATTGAGATAGTGTGGGGAAGG (double strand) [HBG -175 31160 site]
activity [22]: 53 % NHEJ

ATCTGTCTGAAACGGTCCCTGGCTAAAC (double strand) [HBG -175 34363 site]
activity [23]: 39 % NHEJ

ACACACAGGATGACTTCCTCAAGGTGGG (double strand) [KLF1 exon 1 36021 site]
activity [24]: 44.4 % indels

TTGCTACAGTTCTTGAAGACTTTCCCAC (double strand) [BCL11A-XL 44888 site]
activity [25]: 35.1 % indels

TGGTCAAGGCAAGGCTGGCCAACCCATG (double strand) [HBG -110 34539/43852 site]
activity [26]: 45.7 % NHEJ | activity [27]: 56.1 % NHEJ

CTCGATAAAAATAAGAATGT (double strand) [BCL11A exon 2 TALEN 101292 site]
activity [28]: 0.8 % indels

TTGCATTGAGATAGTGTGGGGAAGGGGC (double strand) [HBG -175 34360 site]
activity [29]: 39 % NHEJ

CTCCTGTGGACAGTGAGATTGCTACAGT (double strand) [BCL11A-XL 44910 site]
activity [30]: 36.4 % indels

GCCTTGACAAGGCAAACTTGACCAATAG (double strand) [HBG -110 34574/43865 site]
activity [31]: 45.7 % NHEJ | activity [32]: 56.1 % NHEJ

GTTAAAGGGGTTATTGTCT (double strand) [BCL11A exon 4 TALEN 101304 site]
activity [33]: 35.7 % indels

CTCCAGAAGGGGATCATGACCTCCTCAC (double strand) [BCL11A exon 2 site, SEQ 160]
activity [34]: 19.9 % indels | activity [35]: 35.6 % indels | activity [36]: 69.8 % indels | activity [37]: 42.3 % indels | activity [38]: 38.5 % indels

CTACTCTGGGCACAGGCATAGTTGCACA (double strand) [BCL11A-XL 44944/44946 site]
activity [39]: 24 % indels | activity [40]: 34.2 % indels

CTGTCTGAAACGGTCCCTGGCTAAACTC (double strand) [HBG -175 34400/34365 site]
activity [41]: 53 % NHEJ | activity [42]: 54 % NHEJ

TTGGTCAAGTTTGCCTTGTCA (double strand) [HBG -110 TALEN 102568 site]
activity [43]: 51.4 % NHEJ

AAGCTCACCAGGCACATGAAAACGCATG (double strand) [BCL11A-XL 44945 site]
activity [44]: 24 % indels

TTTGCATTGAGATAGTGTGGGGAAGGGG (double strand) [HBG -175 34398 site]
activity [45]: 54 % NHEJ

GGGAAGGGGCCCAGGGCGGTCAGTGTGC (double strand) [KLF1 exon 1 36004 site]
activity [46]: 44.4 % indels

CTCACCAGGCACATGAAAACGCATGGCC (double strand) [BCL11A-XL 44947 site]
activity [47]: 34.2 % indels

ATATTGCAGACAATAACCCCTTTAACCT (double strand) [BCL11A exon 4 34678 site]
activity [48]: 82.2 % indels

ATGTCCTTCCCAGCCACCTCT (double strand) [BCL11A exon 4 TALEN 101301 site]
activity [49]: 35.7 % indels

GGTGAGGAGGAGATCCAGGTCCCAGGTG (double strand) [KLF1 exon 2 36071 site]
activity [50]: 22.6 % indels
